B1: GST-eIF5^LR+CTD (domain or fragment)
chain: KKKKAATASANVRGGGLSISDIAQGKSQNAPSDGTGSSTPQHHDEDEDELSRQIKAAASTLEDIEVKDDEWAVDMSEEAIRARAKELEVNSELTQLDEYGEWILEQAGEDKENLPSDVELYKKAAELDVLNDPKIGCVLAQCLFDEDIVNEIAEHNAFFTKILVTPEYEKNFMGGIERFLGLEHKDLIPLLPKILVQLYNNDIISEEEIMRFGTKSSKKFVPKEVSKKVRRAAKPFITWLETAESDDDEEDDE
B2: GST-eIF5^W391F (natural protein)
chain: MSINICRDNHDPFYRYKMPPIQAKVEGRGNGIKTAVLNVADISHALNRPAPYIVKYFGFELGAQTSISVDKDRYLVNGVHEPAKLQDVLDGFINKFVLCGSCKNPETEIIITKDNDLVRDCKACGKRTPMDLRHKLSSFILKNPPDSVSGSKKKKKAATASANVRGGGLSISDIAQGKSQNAPSDGTGSSTPQHHDEDEDELSRQIKAAASTLEDIEVKDDEWAVDMSEEAIRARAKELEVNSELTQLDEYGEWILEQAGEDKENLPSDVELYKKAAELDVLNDPKIGCVLAQCLFDEDIVNEIAEHNAFFTKILVTPEYEKNFMGGIERFLGLEHKDLIPLLPKILVQLYNNDIISEEEIMRFGTKSSKKFVPKEVSKKVRRAAKPFITFLETAESDDDEEDDE
B3: GST-eIF5^CTD (domain or fragment)
chain: VNSELTQLDEYGEWILEQAGEDKENLPSDVELYKKAAELDVLNDPKIGCVLAQCLFDEDIVNEIAEHNAFFTKILVTPEYEKNFMGGIERFLGLEHKDLIPLLPKILVQLYNNDIISEEEIMRFGTKSSKKFVPKEVSKKVRRAAKPFITWLETAESDDDEEDDE

Consider 3 molecules from publication PMC2875157 (Nature, 2010).

The target in this assay is Yeast eIF2αβγ complex, purified (his-tagged eIF2γ) (yeast, UniProt P20459;P09064;P32481). Kind of assay: pull-down.
Yeast eIF2αβγ complex, purified (his-tagged eIF2γ), sequence (P20459 whole entry, chain 1 of 3): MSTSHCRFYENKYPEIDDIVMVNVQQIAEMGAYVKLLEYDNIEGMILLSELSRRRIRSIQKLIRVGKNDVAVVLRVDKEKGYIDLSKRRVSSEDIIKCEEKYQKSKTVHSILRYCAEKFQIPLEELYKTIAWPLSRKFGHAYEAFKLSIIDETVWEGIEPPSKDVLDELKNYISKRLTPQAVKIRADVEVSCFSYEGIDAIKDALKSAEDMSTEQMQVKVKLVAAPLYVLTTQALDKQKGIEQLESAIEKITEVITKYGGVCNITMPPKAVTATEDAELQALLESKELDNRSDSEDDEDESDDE
Yeast eIF2αβγ complex, purified (his-tagged eIF2γ), sequence (P09064 whole entry, chain 2 of 3): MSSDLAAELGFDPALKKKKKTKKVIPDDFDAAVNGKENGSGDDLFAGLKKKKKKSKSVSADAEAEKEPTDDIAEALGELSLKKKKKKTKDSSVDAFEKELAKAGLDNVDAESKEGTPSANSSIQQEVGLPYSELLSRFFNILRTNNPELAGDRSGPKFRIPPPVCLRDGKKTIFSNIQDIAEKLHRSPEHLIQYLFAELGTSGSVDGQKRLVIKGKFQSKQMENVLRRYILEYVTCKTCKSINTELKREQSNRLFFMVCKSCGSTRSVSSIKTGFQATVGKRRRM
Yeast eIF2αβγ complex, purified (his-tagged eIF2γ), sequence (P32481 whole entry, chain 3 of 3): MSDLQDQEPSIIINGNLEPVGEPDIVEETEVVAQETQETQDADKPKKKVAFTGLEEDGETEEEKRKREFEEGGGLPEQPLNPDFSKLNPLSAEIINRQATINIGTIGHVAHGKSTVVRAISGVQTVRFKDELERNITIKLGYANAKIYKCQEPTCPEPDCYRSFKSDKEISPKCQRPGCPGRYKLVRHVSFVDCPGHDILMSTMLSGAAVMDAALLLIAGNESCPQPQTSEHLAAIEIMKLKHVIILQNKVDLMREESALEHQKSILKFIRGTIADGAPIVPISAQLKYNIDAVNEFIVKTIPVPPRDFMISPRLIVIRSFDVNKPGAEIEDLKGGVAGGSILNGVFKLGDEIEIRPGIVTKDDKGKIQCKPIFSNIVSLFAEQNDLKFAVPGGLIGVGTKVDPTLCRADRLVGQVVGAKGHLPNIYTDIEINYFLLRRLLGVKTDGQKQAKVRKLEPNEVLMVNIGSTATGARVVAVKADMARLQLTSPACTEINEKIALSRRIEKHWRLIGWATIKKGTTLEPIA
With B1, the binding result is “binds”.
Under B2 stands “binds”; under B3, “binds”.
